# Source: patent US20160317656A1 (published 2016)
# T1: IIIb
# T1 chain: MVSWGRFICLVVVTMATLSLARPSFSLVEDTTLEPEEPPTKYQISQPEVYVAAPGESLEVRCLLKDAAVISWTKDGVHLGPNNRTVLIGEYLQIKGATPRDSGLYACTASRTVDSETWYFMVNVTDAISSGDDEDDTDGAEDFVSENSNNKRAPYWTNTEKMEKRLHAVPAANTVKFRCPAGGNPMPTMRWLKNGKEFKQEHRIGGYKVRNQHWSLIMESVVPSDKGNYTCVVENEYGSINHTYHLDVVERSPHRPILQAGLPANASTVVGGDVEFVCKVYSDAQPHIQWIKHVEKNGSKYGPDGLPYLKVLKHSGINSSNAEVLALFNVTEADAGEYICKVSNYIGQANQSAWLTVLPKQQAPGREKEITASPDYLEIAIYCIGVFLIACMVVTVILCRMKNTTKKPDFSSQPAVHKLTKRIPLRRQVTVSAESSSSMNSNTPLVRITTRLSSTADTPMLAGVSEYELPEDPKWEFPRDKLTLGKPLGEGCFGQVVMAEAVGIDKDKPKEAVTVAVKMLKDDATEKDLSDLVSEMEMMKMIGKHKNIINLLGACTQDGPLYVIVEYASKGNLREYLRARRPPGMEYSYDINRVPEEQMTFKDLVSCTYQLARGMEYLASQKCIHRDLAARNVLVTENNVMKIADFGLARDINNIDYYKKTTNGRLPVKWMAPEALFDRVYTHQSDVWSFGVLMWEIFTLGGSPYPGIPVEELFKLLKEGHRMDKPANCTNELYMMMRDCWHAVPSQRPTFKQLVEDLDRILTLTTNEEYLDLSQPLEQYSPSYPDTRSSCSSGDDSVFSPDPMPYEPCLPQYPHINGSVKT
# Key:
# [1] = target: human FGFR2 IIIc variant protein (isoform 1: NP_000132), expressed on transfected cells (UniProt P21802 22-821); assay: Biacore
# Chain of human FGFR2 IIIc variant protein (isoform 1: NP_000132), expressed on transfected cells (P21802 22-821, change not shown): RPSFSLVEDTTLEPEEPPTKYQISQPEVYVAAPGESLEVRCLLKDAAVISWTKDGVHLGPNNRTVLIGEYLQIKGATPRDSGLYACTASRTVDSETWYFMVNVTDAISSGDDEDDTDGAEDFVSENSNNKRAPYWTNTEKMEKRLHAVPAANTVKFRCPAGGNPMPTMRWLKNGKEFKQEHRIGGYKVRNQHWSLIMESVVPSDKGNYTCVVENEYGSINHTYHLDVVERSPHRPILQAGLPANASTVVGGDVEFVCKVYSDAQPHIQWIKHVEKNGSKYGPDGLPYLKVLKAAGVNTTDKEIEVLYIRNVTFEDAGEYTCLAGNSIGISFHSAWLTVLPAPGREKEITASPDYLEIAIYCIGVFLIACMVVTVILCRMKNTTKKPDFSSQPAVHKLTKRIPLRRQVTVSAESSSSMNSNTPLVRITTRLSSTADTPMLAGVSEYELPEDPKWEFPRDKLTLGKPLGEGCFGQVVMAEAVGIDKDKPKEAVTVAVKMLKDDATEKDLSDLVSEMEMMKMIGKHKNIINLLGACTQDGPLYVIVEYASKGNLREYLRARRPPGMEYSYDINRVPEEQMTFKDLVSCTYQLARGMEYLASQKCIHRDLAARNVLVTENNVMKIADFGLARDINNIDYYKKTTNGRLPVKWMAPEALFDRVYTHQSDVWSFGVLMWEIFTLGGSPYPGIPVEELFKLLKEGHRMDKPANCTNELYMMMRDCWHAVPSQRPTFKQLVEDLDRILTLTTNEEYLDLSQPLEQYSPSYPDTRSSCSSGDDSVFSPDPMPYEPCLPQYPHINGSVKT
# IIIb = target: T1, IIIb; assay: Biacore; rhFGFR2 alpha (IIIb) Fc chimera
# IIIc = assay: Biacore; rhFGFR2 alpha (IIIc) Fc chimera
Kd [1] [nM],Kd (IIIb) [nM],Kd (IIIc) [nM],Binder
1.2,–,–,"humanized anti-FGFR2 antibody hFR2-14_H7/L1 (antibody, V domains shown) VH: QVQLVQSGAEVKKPGASVKVSCKASGFTFSTSYMSWVRQAPGPSTEWMGWIYAGDGGTKYNQKFKGRVTLTVDKSTSTAYMELSSLRSEDTAVYYCATDEYGDWFTYWGQGTLVTVSS VL: DIQMTQSPSSLSASVGDRVTITCRASEDIYSNLAWYQQKPGKSPQLLIYDANILADGVPSRFSGSGSGTDYTLTISSLQPEDFATYYCQQYNNYPPFTFGQGTKVEIKR"
2.3,–,–,"humanized anti-FGFR2 antibody hFR2-14_H14/L1 (antibody, V domains shown) VH: QVQLVQSGAEVKKPGASVKVSCKASGFTFSTSYMSWVRQAPGPSTEWMGWIYAGDGGTKYNQKFKGRVTLTVDKSTSTAYMELSSLRSEDTAVYYCATDQYGDWFTYWGQGTLVTVSS VL: DIQMTQSPSSLSASVGDRVTITCRASEDIYSNLAWYQQKPGKSPQLLIYDANILADGVPSRFSGSGSGTDYTLTISSLQPEDFATYYCQQYNNYPPFTFGQGTKVEIKR"
–,8.7,6.4,"humanized anti-FGFR2 antibody hFR2-14_H2/L1 (antibody, V domains shown) VH: QVQLVQSGAEVKKPGASVKVSCKASGFTFSTSYMSWVRQAPGQGLEWMGWIYAGDGGTKYNQKFKGRVTLTADKSTSTAYMELSSLRSEDTAVYYCATDGYGDWFTYWGQGTLVTVSS VL: DIQMTQSPSSLSASVGDRVTITCRASEDIYSNLAWYQQKPGKSPQLLIYDANILADGVPSRFSGSGSGTDYTLTISSLQPEDFATYYCQQYNNYPPFTFGQGTKVEIKR"
3.4,–,–,"humanized anti-FGFR2 antibody hFR2-14_H15/L1 (antibody, V domains shown) VH: QVQLVQSGAEVKKPGASVKVSCKASGFTFSTSYMSWVRQAPGPSTEWMGWIYAGDGGTKYNQKFKGRVTLTVDKSTSTAYMELSSLRSEDTAVYYCATDRYGDWFTYWGQGTLVTVSS VL: DIQMTQSPSSLSASVGDRVTITCRASEDIYSNLAWYQQKPGKSPQLLIYDANILADGVPSRFSGSGSGTDYTLTISSLQPEDFATYYCQQYNNYPPFTFGQGTKVEIKR"
1.2,–,–,"humanized anti-FGFR2 antibody hFR2-14_H18/L1 (antibody, V domains shown) VH: QVQLVQSGAEVKKPGASVKVSCKASGFTFSTSYMSWVRQAPGPSTEWMGWIYAGDGGTKYNQKFKGRVTLTVDKSTSTAYMELSSLRSEDTAVYYCATDYYGDWFTYWGQGTLVTVSS VL: DIQMTQSPSSLSASVGDRVTITCRASEDIYSNLAWYQQKPGKSPQLLIYDANILADGVPSRFSGSGSGTDYTLTISSLQPEDFATYYCQQYNNYPPFTFGQGTKVEIKR"
0.95,–,–,"humanized anti-FGFR2 antibody hFR2-14_H5/L1 (antibody, V domains shown) VH: QVQLVQSGAEVKKPGASVKVSCKASGFTFSTSYMSWVRQAPGPSTEWMGWIYAGDGGTKYNQKFKGRVTLTVDKSTSTAYMELSSLRSEDTAVYYCATEGYGDWFTYWGQGTLVTVSS VL: DIQMTQSPSSLSASVGDRVTITCRASEDIYSNLAWYQQKPGKSPQLLIYDANILADGVPSRFSGSGSGTDYTLTISSLQPEDFATYYCQQYNNYPPFTFGQGTKVEIKR"
0.67,–,–,"humanized anti-FGFR2 antibody hFR2-14_H13/L1 (antibody, V domains shown) VH: QVQLVQSGAEVKKPGASVKVSCKASGFTFSTSYMSWVRQAPGPSTEWMGWIYAGDGGTKYNQKFKGRVTLTVDKSTSTAYMELSSLRSEDTAVYYCATDMYGDWFTYWGQGTLVTVSS VL: DIQMTQSPSSLSASVGDRVTITCRASEDIYSNLAWYQQKPGKSPQLLIYDANILADGVPSRFSGSGSGTDYTLTISSLQPEDFATYYCQQYNNYPPFTFGQGTKVEIKR"
0.51,–,–,"humanized anti-FGFR2 antibody hFR2-14_H9/L1 (antibody, V domains shown) VH: QVQLVQSGAEVKKPGASVKVSCKASGFTFSTSYMSWVRQAPGPSTEWMGWIYAGDGGTKYNQKFKGRVTLTVDKSTSTAYMELSSLRSEDTAVYYCATDHYGDWFTYWGQGTLVTVSS VL: DIQMTQSPSSLSASVGDRVTITCRASEDIYSNLAWYQQKPGKSPQLLIYDANILADGVPSRFSGSGSGTDYTLTISSLQPEDFATYYCQQYNNYPPFTFGQGTKVEIKR"
2.1,–,–,"humanized anti-FGFR2 antibody hFR2-14_H11/L1 (antibody, V domains shown) VH: QVQLVQSGAEVKKPGASVKVSCKASGFTFSTSYMSWVRQAPGPSTEWMGWIYAGDGGTKYNQKFKGRVTLTVDKSTSTAYMELSSLRSEDTAVYYCATDKYGDWFTYWGQGTLVTVSS VL: DIQMTQSPSSLSASVGDRVTITCRASEDIYSNLAWYQQKPGKSPQLLIYDANILADGVPSRFSGSGSGTDYTLTISSLQPEDFATYYCQQYNNYPPFTFGQGTKVEIKR"
0.69,–,–,"humanized anti-FGFR2 antibody hFR2-14_H10/L1 (antibody, V domains shown) VH: QVQLVQSGAEVKKPGASVKVSCKASGFTFSTSYMSWVRQAPGPSTEWMGWIYAGDGGTKYNQKFKGRVTLTVDKSTSTAYMELSSLRSEDTAVYYCATDIYGDWFTYWGQGTLVTVSS VL: DIQMTQSPSSLSASVGDRVTITCRASEDIYSNLAWYQQKPGKSPQLLIYDANILADGVPSRFSGSGSGTDYTLTISSLQPEDFATYYCQQYNNYPPFTFGQGTKVEIKR"
0.91,–,–,"humanized anti-FGFR2 antibody hFR2-14_H16/L1 (antibody, V domains shown) VH: QVQLVQSGAEVKKPGASVKVSCKASGFTFSTSYMSWVRQAPGPSTEWMGWIYAGDGGTKYNQKFKGRVTLTVDKSTSTAYMELSSLRSEDTAVYYCATDVYGDWFTYWGQGTLVTVSS VL: DIQMTQSPSSLSASVGDRVTITCRASEDIYSNLAWYQQKPGKSPQLLIYDANILADGVPSRFSGSGSGTDYTLTISSLQPEDFATYYCQQYNNYPPFTFGQGTKVEIKR"
–,12,3,"humanized anti-FGFR2 antibody hFR2-14_H1/L1 (antibody, V domains shown) VH: QVQLVQSGAEVKKPGASVKVSCKASGFTFSTSYMSWVRQAPGQGLEWMGWIYAGDGGTKYNQKFKGRVTLTVDKSTSTAYMELSSLRSEDTAVYYCATDGYGDWFTYWGQGTLVTVSS VL: DIQMTQSPSSLSASVGDRVTITCRASEDIYSNLAWYQQKPGKSPQLLIYDANILADGVPSRFSGSGSGTDYTLTISSLQPEDFATYYCQQYNNYPPFTFGQGTKVEIKR"
–,5.4,2.8,"humanized anti-FGFR2 antibody hFR2-14_H4/L1 (antibody, V domains shown) VH: QVQLVQSGAEVKKPGASVKVSCKASGFTFSTSYMSWVRQAPGPSIEWMGWIYAGDGGTKYNQKFKGRVTLTVDKSTSTAYMELSSLRSEDTAVYYCATDGYGDWFAYWGQGTLVTVSS VL: DIQMTQSPSSLSASVGDRVTITCRASEDIYSNLAWYQQKPGKSPQLLIYDANILADGVPSRFSGSGSGTDYTLTISSLQPEDFATYYCQQYNNYPPFTFGQGTKVEIKR"
1.5,–,–,"humanized anti-FGFR2 antibody hFR2-14_H6/L1 (antibody, V domains shown) VH: QVQLVQSGAEVKKPGASVKVSCKASGFTFSTSYMSWVRQAPGPSTEWMGWIYAGDGGTKYNQKFKGRVTLTVDKSTSTAYMELSSLRSEDTAVYYCATDAYGDWFTYWGQGTLVTVSS VL: DIQMTQSPSSLSASVGDRVTITCRASEDIYSNLAWYQQKPGKSPQLLIYDANILADGVPSRFSGSGSGTDYTLTISSLQPEDFATYYCQQYNNYPPFTFGQGTKVEIKR"
1.5,–,–,"humanized anti-FGFR2 antibody hFR2-14_H17/L1 (antibody, V domains shown) VH: QVQLVQSGAEVKKPGASVKVSCKASGFTFSTSYMSWVRQAPGPSTEWMGWIYAGDGGTKYNQKFKGRVTLTVDKSTSTAYMELSSLRSEDTAVYYCATDWYGDWFTYWGQGTLVTVSS VL: DIQMTQSPSSLSASVGDRVTITCRASEDIYSNLAWYQQKPGKSPQLLIYDANILADGVPSRFSGSGSGTDYTLTISSLQPEDFATYYCQQYNNYPPFTFGQGTKVEIKR"
–,63,–,"human chimeric anti-FGFR2 antibody cFR2-14 (antibody, V domains shown) VH: QVKLLQSGAELVKPGASVKLSCKTSGFTFSTSYMSWLKQVPGPSTEWIGWIYAGDGGTKYNQKFKGKATLTVDKFSSTAYMDLSSLTSEDAAVYFCATDGYGDWFTYWGQGTLVTVSS VL: DIQMTQSPASLSASLGETVTIECRASEDIYSNLAWYQQKPGNSPQLLIYDANILADGVPSRFSGSGSGTQYSLKINSLQSEDVASYFCQQYNNYPPFTFGAGTKLELKR"
